Residue numbers refer to the chain shown, from its start. Numbers in names are those of the source.
B1: His6Cdc12–Cdc3–Cdc10–Cdc11 complex (complex)
chain 1: MSAATATAAPVPPPVGISNLPNQRYKIVNEEGGTFTVMLCGESGLGKTTFINTLFQTVLKRADGQQHRQEPIRKTVEIDITRALLEEKHFELRVNVIDTPGFGDNVNNNKAWQPLVDFIDDQHDSYMRQEQQPYRTKKFDLRVHAVLYFIRPTGHGLKPIDIETMKRLSTRANLIPVIAKADTLTAQELQQFKSRIRQVIEAQEIRIFTPPLDADSKEDAKSGSNPDSAAVEHARQLIEAMPFAIVGSEKKFDNGQGTQVVARKYPWGLVEIENDSHCDFRKLRALLLRTYLLDLISTTQEMHYETYRRLRLEGHENTGEGNEDFTLPAIAPARKLSHNPRYKEEENALKKYFTDQVKAEEQRFRQWEQNIVNERIRLNGDLEEIQGKVKKLEEQVKSLQVKKSHLK
chain 2: MSLKEEQVSIKQDPEQEERQHDQFNDVQIKQESQDHDGVDSQYTNGTQNDDSERFEAAESDVKVEPGLGMGITSSQSEKGQVLPDQPEIKFIRRQINGYVGFANLPKQWHRRSIKNGFSFNLLCVGPDGIGKTTLMKTLFNNDDIEANLVKDYEEELANDQEEEEGQGEGHENQSQEQRHKVKIKSYESVIEENGVKLNLNVIDTEGFGDFLNNDQKSWDPIIKEIDSRFDQYLDAENKINRHSINDKRIHACLYFIEPTGHYLKPLDLKFMQSVYEKCNLIPVIAKSDILTDEEILSFKKTIMNQLIQSNIELFKPPIYSNDDAENSHLSERLFSSLPYAVIGSNDIVENYSGNQVRGRSYPWGVIEVDNDNHSDFNLLKNLLIKQFMEELKERTSKILYENYRSSKLAKLGIKQDNSVFKEFDPISKQQEEKTLHEAKLAKLEIEMKTVFQQKVSEKEKKLQKSETELFARHKEMKEKLTKQLKALEDKKKQLELSINSASPNVNHSPVPTKKKGFLR
chain 3: MDPLSSVQPASYVGFDTITNQIEHRLLKKGFQFNIMVVGQSGLGKSTLINTLFASHLIDSATGDDISALPVTKTTEMKISTHTLVEDRVRLNINVIDTPGFGDFIDNSKAWEPIVKYIKEQHSQYLRKELTAQRERFITDTRVHAILYFLQPNGKELSRLDVEALKRLTEIANVIPVIGKSDTLTLDERTEFRELIQNEFEKYNFKIYPYDSEELTDEELELNRSVRSIIPFAVVGSENEIEINGETFRGRKTRWSAINVEDINQCDFVYLREFLIRTHLQDLIETTSYIHYEGFRARQLIALKENANSRSSAHMSSNAIQR
chain 4: MSGIIDASSALRKRKHLKRGITFTVMIVGQSGSGRSTFINTLCGQQVVDTSTTILLPTDTSTEIDLQLREETVELEDDEGVKIQLNIIDTPGFGDSLDNSPSFEIISDYIRHQYDEILLEESRVRRNPRFKDGRVHCCLYLINPTGHGLKEIDVEFIRQLGSLVNIIPVISKSDSLTRDELKLNKKLIMEDIDRWNLPIYNFPFDEDEISDEDYETNMYLRTLLPFAIIGSNEVYEMGGDVGTIRGRKYPWGILDVEDSSISDFVILRNALLISHLHDLKNYTHEILYERYRTEALSGESVAAESIRPNLTKLNGSSSSSTTTRRNTNPFKQSNNINNDVLNPASDMHGQSTGENNETYMTREEQIRLEEERLKAFEERVQQELLLKRQELLQREKELREIEARLEKEAKIKQEE
B2: Heterotetrameric complex containing just Cdc12(T48N), but wild-type Cdc3, Cdc10, and Cdc11 (complex)
chain 1: B1 chain 1 with T48N
chain 2: B1 chain 2
chain 3: B1 chain 3
chain 4: B1 chain 4

Biological target: the molecule itself
Test: fluorescence microscopy of purified complexes on slides

Protein	binding result
B1	binds
B2	binds
